Where a chain is given by its changes, count along the chain named. Numbers in names are those of the source.
How the values were obtained:
Type in all cases: biochemical, Escherichia blattae
Settings in all cases: other: transphosphorylation, 100 mM sodium pyrophosphate, 10–100 mM inosine, pH 4, 30° C., 10 min, cell free extract, Hanes-Woolf
[1] = substrate: OC[C@H]1O[C@@H](n2cnc3c(O)ncnc32)[C@H](O)[C@@H]1O; assay: Km for inosine, transphosphorylation by S72E/G74D/I153T mutant EB-AP
Description: (§1) In order to construct a mutant EB-AP for expression in Escherichia coli JM109, a plasmid pEPI340 containing a gene for G74D/I153T mutant EB-AP was used as a template for site-directed mutagenesis utilizing PCR. The nucleotide sequences of these plasmids pEPI305 and pEPI340 are disclosed in Japanese Patent Laid-open (Kokai) No. 10-201481/1998, paragraph (0143), Table 12. […]
(§2) Then, the Km value for inosine in the transphosphorylation reaction by each 3-residue replaced mutant EB-AP was measured under the following conditions. […] After 200 μl of 1 N hydrochloric acid was added to stop the reaction, the precipitates were removed by centrifugation, and the produced 5′-inosinic acid was quantified. The Km value was calculated by the Hanes-Woolf plotting.
(§3) 5′-Inosinic acid was analyzed by high performance liquid chromatography (HPLC) under the following conditions. • Column: Cosmosil 5C18-AR (4.6×150 mm), produced by Nakarai Tesque • Mobile phase: 5 mM potassium phosphate buffer (pH 2.8)/methanol=95/5 • Flow rate: 1.0 ml/min • Temperature: room temperature • Detection: UV 245 nm

[2] = substrate: OC[C@H]1O[C@@H](n2cnc3c(O)ncnc32)[C@H](O)[C@@H]1O; assay: Km for inosine, transphosphorylation by S72M/G74D/I153T mutant EB-AP
Description: as §1, §2, §3

[3] = substrate: OC[C@H]1O[C@@H](n2cnc3c(O)ncnc32)[C@H](O)[C@@H]1O; assay: Km for inosine, transphosphorylation by S72T/G74D/I153T mutant EB-AP
Description: as §1, §2, §3

[4] = substrate: OC[C@H]1O[C@@H](n2cnc3c(O)ncnc32)[C@H](O)[C@@H]1O; assay: Km for inosine, transphosphorylation by G74D/I153T mutant EB-AP
[5] = substrate: OC[C@H]1O[C@@H](n2cnc3c(O)ncnc32)[C@H](O)[C@@H]1O; assay: Km for inosine, transphosphorylation by 10-residue replaced mutant EB-AP
[6] = substrate: OC[C@H]1O[C@@H](n2cnc3c(O)ncnc32)[C@H](O)[C@@H]1O; assay: Km for inosine, transphosphorylation by S72F/G74D/I153T mutant EB-AP
Description: as §1, §2, §3

[7] = substrate: OC[C@H]1O[C@@H](n2cnc3c(O)ncnc32)[C@H](O)[C@@H]1O; assay: Km for inosine, transphosphorylation by S72Y/G74D/I153T mutant EB-AP
Description: as §1, §2, §3

[8] = substrate: OC[C@H]1O[C@@H](n2cnc3c(O)ncnc32)[C@H](O)[C@@H]1O; assay: Km for inosine, transphosphorylation by S72W/G74D/I153T mutant EB-AP
Description: as §1, §2, §3

[9] = substrate: OC[C@H]1O[C@@H](n2cnc3c(O)ncnc32)[C@H](O)[C@@H]1O; assay: Km for inosine, transphosphorylation by S72D/G74D/I153T mutant EB-AP
Description: as §1, §2, §3

[10] = substrate: OC[C@H]1O[C@@H](n2cnc3c(O)ncnc32)[C@H](O)[C@@H]1O; assay: Km for inosine, transphosphorylation by S72V/G74D/I153T mutant EB-AP
Description: as §1, §2, §3

[11] = substrate: OC[C@H]1O[C@@H](n2cnc3c(O)ncnc32)[C@H](O)[C@@H]1O; assay: Km for inosine, transphosphorylation by A72F/10-residue replaced mutant EB-AP
Description: (§4) Then, the Km value for inosine in the transphosphorylation reaction by each 3-residue replaced mutant EB-AP was measured under the following conditions. A reaction mixture (1 ml) containing 100 mM sodium pyrophosphate, 100 mM acetate buffer (pH 4.0), 10–100 mM inosine and 100 μl of the cell free extract was incubated at pH 4 and 30° C. for 10 minutes. After 200 μl of 1 N hydrochloric acid was added to stop the reaction, the precipitates were removed by centrifugation, and the produced 5′-inosinic acid was quantified. The Km value was calculated by the Hanes-Woolf plotting.
as §3
(§5) The S72F mutation that decreased the Km value in the highest degree and the S72E mutation that enhanced the activity in the highest degree in Example 12 were introduced into the 10-residue replaced mutant EB-AP. Since Ser72 was replaced with Ala in the 10-residue replaced mutant EB-AP, the A72F and A72E mutations were actually introduced. […] Furthermore, transphosphorylation activity and reaction rate constant were measured by the method described in Example 12. […]

[12] = substrate: OC[C@H]1O[C@@H](n2cnc3c(O)ncnc32)[C@H](O)[C@@H]1O; assay: Km for inosine, transphosphorylation by A72E/10-residue replaced mutant EB-AP
Description: as §4, §3, §5

[13] = substrate: OC[C@H]1O[C@@H](n2cnc3c(O)ncnc32)[C@H](O)[C@@H]1O; assay: Km for inosine, transphosphorylation by A72E/L140F/10-residue replaced mutant EB-AP
[14] = substrate: OC[C@H]1O[C@@H](n2cnc3c(O)ncnc32)[C@H](O)[C@@H]1O; assay: Km for inosine, transphosphorylation by A72E/L140K/10-residue replaced mutant EB-AP

B1: Escherichia blattae acid phosphatase (EB-AP, SEQ ID NO: 2 / 124) mutant S72E/G74D/I153T (Shimwellia blattae; G92D/I171T/S90E) (protein)
chain: LVATGNDTTTKPDLYYLKNSEAINSLALLPPPPAVGSIAFLNDQAMYEQGRLLRNTERGKLAAEDANLSEGDVANAFSGAFGSPITEKDAPALHKLLTNMIEDAGDLATRSAKDHYMRIRPFAFYGVSTCNTTEQDKLSKNGSYPSGHTSTGWATALVLAEINPQRQNEILKRGYELGQSRVICGYHWQSDVDAARVVGSAVVATLHTNPAFQQQLQKAKAEFAQHQKK
B1 was tested. Which Km [1] did it give?
The Km was 40 mM.

B2: Escherichia blattae acid phosphatase (EB-AP, SEQ ID NO: 2 / 124) mutant S72M/G74D/I153T (Shimwellia blattae; G92D/I171T/S90M) (protein)
chain: B1 chain with E70M
How did the Km [2] turn out when B2 was run?
The Km was 46 mM.

B3: Escherichia blattae acid phosphatase (EB-AP, SEQ ID NO: 2 / 124) mutant S72T/G74D/I153T (Shimwellia blattae; G92D/I171T/S90T) (protein)
chain: B1 chain with E70T
B3 was tested. Which Km [3] did it give?
Its Km is 50 mM.

B4: Escherichia blattae acid phosphatase (EB-AP, SEQ ID NO: 2 / 124) mutant G74D/I153T (Shimwellia blattae; G92D/I171T) (protein)
chain: B1 chain with E70S
B4 was tested. Which Km [4] did it give?
The Km was 100 mM.

B5: Escherichia blattae acid phosphatase (EB-AP, SEQ ID NO: 2 / 124) 10-residue replaced mutant L63Q/A65Q/E66A/N69D/S71A/S72A/G74D/T135K/E136D/I153T (Shimwellia … (protein)
chain: B1 chain with L61Q, A63Q, E64A, N67D, S69A, E70A, T133K, E134D
B5 was tested. Which Km [5] did it give?
Its Km is 40 mM.

B6: Escherichia blattae acid phosphatase (EB-AP, SEQ ID NO: 2 / 124) mutant S72F/G74D/I153T (Shimwellia blattae; G92D/I171T/S90F) (protein)
chain: B1 chain with E70F
B6 was tested. Which Km [6] did it give?
The Km was 20 mM.

B7: Escherichia blattae acid phosphatase (EB-AP, SEQ ID NO: 2 / 124) mutant S72Y/G74D/I153T (Shimwellia blattae; G92D/I171T/S90Y) (protein)
chain: B1 chain with E70Y
B7 was tested. Which Km [7] did it give?
The Km was 25 mM.

B8: Escherichia blattae acid phosphatase (EB-AP, SEQ ID NO: 2 / 124) mutant S72W/G74D/I153T (Shimwellia blattae; G92D/I171T/S90W) (protein)
chain: B1 chain with E70W
For B8, which Km [8] is on record?
The Km was 30 mM.

B9: Escherichia blattae acid phosphatase (EB-AP, SEQ ID NO: 2 / 124) mutant S72D/G74D/I153T (Shimwellia blattae; G92D/I171T/S90D) (protein)
chain: B1 chain with E70D
B9 was tested. Which Km [9] did it give?
The Km was 33 mM.

B10: Escherichia blattae acid phosphatase (EB-AP, SEQ ID NO: 2 / 124) mutant S72V/G74D/I153T (Shimwellia blattae; G92D/I171T/S90V) (protein)
chain: B1 chain with E70V
For B10, which Km [10] is on record?
Its Km is 40 mM.

B11: Escherichia blattae acid phosphatase (EB-AP, SEQ ID NO: 2 / 124) mutant A72F/10-residue replaced (L63Q/A65Q/E66A/N69D/S71A/S72A/G74D/T135K/E136D/I153T with … (protein)
chain: B1 chain with L61Q, A63Q, E64A, N67D, S69A, E70F, T133K, E134D
With B11 as the protein, how does the Km [11] read?
The Km was 9 mM.

B12: Escherichia blattae acid phosphatase (EB-AP, SEQ ID NO: 2 / 124) mutant A72E/10-residue replaced (L63Q/A65Q/E66A/N69D/S71A/S72A/G74D/T135K/E136D/I153T with … (protein)
chain: B1 chain with L61Q, A63Q, E64A, N67D, S69A, T133K, E134D
How did the Km [12] turn out when B12 was run?
The Km was 15 mM.

B13: Escherichia blattae acid phosphatase (EB-AP, SEQ ID NO: 2 / 124) mutant A72E/L140F/10-residue replaced (L63Q/A65Q/E66A/N69D/S71A/S72A/G74D/T135K/E136D/I153T … (protein)
chain: B1 chain with L61Q, A63Q, E64A, N67D, S69A, T133K, E134D, L138F
With B13 as the protein, how does the Km [13] read?
The Km was 9 mM.

B14: Escherichia blattae acid phosphatase (EB-AP, SEQ ID NO: 2 / 124) mutant A72E/L140K/10-residue replaced (L63Q/A65Q/E66A/N69D/S71A/S72A/G74D/T135K/E136D/I153T … (protein)
chain: B1 chain with L61Q, A63Q, E64A, N67D, S69A, T133K, E134D, L138K
How did the Km [14] turn out when B14 was run?
Its Km is 78 mM.
